B1: TY3 DNA PPT (dsDNA)
DNA 1: GCCTGCAGGTCGACTCTAGAGACAACCCTGAGAGAGAGGAA
DNA 2: CATCTTCCTCTCTCTCAGGGTTGTCTCTAGAGTCGACCTGCAGGC
B2: AMV DNA PPT (dsDNA)
DNA 1: GCCTGCAGGTCGACTCTAGAGCTTTTGCATAGGGAGGGGGA
DNA 2: CATTTCCCCCTCCCTATGCAAAAGCTCTAGAGTCGACCTGCAGGC
B3: HIV DNA PPT (41/45) (dsDNA)
DNA 1: GCCTGCAGGTCGACTCTAGACTTTTTAAAAGAAAAGGGGGG
DNA 2: CAGTCCCCCCTTTTCTTTTAAAAAGTCTAGAGTCGACCTGCAGGC
B4: MuLV DNA PPT (dsDNA)
DNA 1: GCCTGCAGGTCGACTCTAGATAGTCTCCAGAAAAAGGGGGG
DNA 2: CATTCCCCCCTTTTTCTGGAGACTATCTAGAGTCGACCTGCAGGC
B5: MuLV R14-3 (dsDNA)
DNA 1: GCCTGCAGGTCGACTCTAGAGAGATGTAGCGCATGAAGGTA
DNA 2: CTTCTACCTTCATGCGCTACATCTCTCTAGAGTCGACCTGCAGGC
B6: MuLV R14-1 (dsDNA)
DNA 1: GCCTGCAGGTCGACTCTAGAATAAGGAAGATCTGCGGGGGG
DNA 2: CTTTCCCCCCGCAGATCTTCCTTATTCTAGAGTCGACCTGCAGGC
B7: MuLV R14-2 (dsDNA)
DNA 1: GCCTGCAGGTCGACTCTAGACACCAGGACATGATGGCAGGA
DNA 2: ATCTTCCTGCCATCATGTCCTGGTGTCTAGAGTCGACCTGCAGGC
B8: AMV R12-2 (dsDNA)
DNA 1: GCCTGCAGGTCGACTCTAGATCACAAAGACCGGCGGGGTAA
DNA 2: ATCTTTACCCCGCCGGTCTTTGTGATCTAGAGTCGACCTGCAGGC
B9: AMV R12-3 (dsDNA)
DNA 1: GCCTGCAGGTCGACTCTAGACGGGCAGTGTAATGAAGGCCA
DNA 2: CTTCTGGCCTTCATTACACTGCCCGTCTAGAGTCGACCTGCAGGC
B10: Control-2 (DNA:RNA)
RNA: AAUUCGAGCUCGGUA
DNA: CAGTTACCGAGCTCGAATT
modifications: strand 1 RNA, strand 2 DNA
B11: Control-1 (DNA:RNA)
?: AAAAGAAAAGCGCGC
DNA: CAGTGCGCGCTTTTCTTTT
modifications: strand 1 RNA, strand 2 DNA
B12: Ty3+3 RNA PPT (DNA:RNA)
RNA: CCUGAGCGCGCGGCC
DNA: CAGCGGCCGCGCGCTCAGG
modifications: strand 1 RNA, strand 2 DNA
B13: Ty3 RNA PPT (DNA:RNA)
?: GAGCGCGCGGCC
DNA: CAGCGGCCGCGCGCTCAGG
modifications: strand 1 RNA, strand 2 DNA

target: MuLV RT (Moloney murine leukemia virus, UniProt P03355 660-1330); test: primer extension with trap; 6 mM Mg2+; Primer extension: 50 mM Tris-HCl pH 8.0, 80 mM KCl, 6 mM MgCl2, 1 mM DTT, 0.1 mg/ml BSA, room temperature, 1 nM duplex; filter binding: Tris-HCl pH 8.0, 80 mM K; details: not given

Binder	Kd
B1	46 nM
B2	17 nM
B3	7.5 nM
B4	12 nM
B5	53 nM
B6	8.1 nM
B7	77 nM

target: T1, Ty3 RT (Ty3 retrotransposon, UniProt Q99315 536-1011); test: primer extension with trap; 6 mM Mg2+; Primer extension: 50 mM Tris-HCl pH 8.0, 80 mM KCl, 6 mM MgCl2, 1 mM DTT, 0.1 mg/ml BSA, room temperature, 1 nM duplex; filter binding: Tris-HCl pH 8.0, 80 mM KCl, 1 mM DTT, without Mg2+ (wt) or 6 mM Mg2+ (E478Q), room temperature, 5 nM hybrid (Table 1 units nM inferred); details: protein: recombinant; label: 5'-32P primer; 41 nt primer on 45 nt template, 5' overhang 4 nt (template)
T1 sequence: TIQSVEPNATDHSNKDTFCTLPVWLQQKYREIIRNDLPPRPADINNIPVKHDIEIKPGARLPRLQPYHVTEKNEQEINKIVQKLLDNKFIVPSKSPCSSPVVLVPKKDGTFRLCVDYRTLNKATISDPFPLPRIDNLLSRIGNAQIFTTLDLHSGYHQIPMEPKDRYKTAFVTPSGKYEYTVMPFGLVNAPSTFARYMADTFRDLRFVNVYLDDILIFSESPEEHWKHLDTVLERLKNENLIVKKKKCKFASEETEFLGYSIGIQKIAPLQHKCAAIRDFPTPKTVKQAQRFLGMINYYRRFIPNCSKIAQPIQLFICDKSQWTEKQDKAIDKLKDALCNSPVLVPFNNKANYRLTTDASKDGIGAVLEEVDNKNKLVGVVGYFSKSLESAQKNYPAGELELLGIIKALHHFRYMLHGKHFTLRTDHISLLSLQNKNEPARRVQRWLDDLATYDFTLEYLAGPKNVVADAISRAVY

Binder	Kd
B1	84 ± 26 nM
B2	58 ± 4 nM
B3	53 ± 12 nM
B4	45 ± 4 nM

target: T2, AMV RT (avian myeloblastosis virus, UniProt Q83133;Q83133 6-577;6-864); test: as above; details: protein: commercial; copies: 1;1; label: 5'-32P primer; 41 nt primer on 45 nt template, 5' overhang 4 nt (template)
T2 sequence 1: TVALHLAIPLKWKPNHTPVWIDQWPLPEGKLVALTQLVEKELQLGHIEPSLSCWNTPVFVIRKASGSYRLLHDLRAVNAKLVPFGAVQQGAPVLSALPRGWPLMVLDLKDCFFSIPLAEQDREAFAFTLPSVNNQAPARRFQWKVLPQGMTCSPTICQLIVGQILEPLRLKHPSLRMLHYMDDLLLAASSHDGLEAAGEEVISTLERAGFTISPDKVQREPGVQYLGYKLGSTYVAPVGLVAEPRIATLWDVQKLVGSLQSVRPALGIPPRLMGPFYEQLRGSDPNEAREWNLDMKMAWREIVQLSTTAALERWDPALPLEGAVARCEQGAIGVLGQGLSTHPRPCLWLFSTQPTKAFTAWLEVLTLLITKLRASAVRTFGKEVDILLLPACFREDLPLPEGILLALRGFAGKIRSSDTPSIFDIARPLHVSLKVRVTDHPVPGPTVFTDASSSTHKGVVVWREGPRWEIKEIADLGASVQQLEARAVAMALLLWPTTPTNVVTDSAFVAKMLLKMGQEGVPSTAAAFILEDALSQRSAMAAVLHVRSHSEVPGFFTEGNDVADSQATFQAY
T2 sequence 2: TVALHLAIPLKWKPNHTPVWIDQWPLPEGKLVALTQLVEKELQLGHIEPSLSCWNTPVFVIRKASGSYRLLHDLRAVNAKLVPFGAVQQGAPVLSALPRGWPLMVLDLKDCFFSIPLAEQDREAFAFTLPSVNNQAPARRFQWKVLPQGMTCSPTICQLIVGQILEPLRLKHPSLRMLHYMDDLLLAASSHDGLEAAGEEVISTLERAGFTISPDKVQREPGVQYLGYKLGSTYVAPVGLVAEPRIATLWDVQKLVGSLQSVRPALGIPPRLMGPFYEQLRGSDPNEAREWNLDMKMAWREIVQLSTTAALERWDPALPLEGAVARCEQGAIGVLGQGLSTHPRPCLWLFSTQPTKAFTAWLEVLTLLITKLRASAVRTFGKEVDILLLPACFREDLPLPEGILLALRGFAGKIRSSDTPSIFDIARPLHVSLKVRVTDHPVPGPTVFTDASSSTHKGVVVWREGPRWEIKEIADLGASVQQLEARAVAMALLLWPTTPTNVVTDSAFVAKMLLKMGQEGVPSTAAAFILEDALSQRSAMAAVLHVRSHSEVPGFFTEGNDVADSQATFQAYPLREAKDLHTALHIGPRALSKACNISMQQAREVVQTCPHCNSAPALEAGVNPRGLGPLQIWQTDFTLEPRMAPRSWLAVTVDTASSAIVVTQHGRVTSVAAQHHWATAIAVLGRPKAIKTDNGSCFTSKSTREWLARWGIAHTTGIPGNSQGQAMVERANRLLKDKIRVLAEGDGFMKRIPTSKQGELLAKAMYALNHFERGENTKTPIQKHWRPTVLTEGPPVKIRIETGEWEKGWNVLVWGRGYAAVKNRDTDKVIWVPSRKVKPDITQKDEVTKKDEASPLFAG

Binder	Kd
B1	12 ± 2 nM
B2	1 ± 0.1 nM
B8	3.5 ± 0.1 nM
B3	2.1 ± 0.4 nM
B4	2.6 ± 0.2 nM
B9	6.8 ± 0.1 nM

target: T3, HIV RT (HIV, UniProt P04585;P04585 588-1147;588-1027); test: as above; details: protein: commercial; copies: 1;1; label: 5'-32P primer; 41 nt primer on 45 nt template, 5' overhang 4 nt (template)

Binder	Kd
B1	57 ± 10 nM
B2	8.2 ± 2 nM
B3	3.2 ± 0.2 nM
B4	3.5 ± 0.5 nM

target: T3, HIV RT; test: filter binding; no Mg2+; Primer extension: 50 mM Tris-HCl pH 8.0, 80 mM KCl, 6 mM MgCl2, 1 mM DTT, 0.1 mg/ml BSA, room temperature, 1 nM duplex; filter binding: Tris-HCl pH 8.0, 80 mM KCl, 1 mM DTT, without Mg2+ (wt) or 6 mM Mg2+ (E478Q), room temperature, 5 nM hybrid (Table 1 units nM inferred); details: protein: commercial; copies: 1;1; label: 5'-32P primer; 5' overhang 4 nt (template)

Binder	Kd
B10	2610 ± 710 nM
B11	1760 ± 290 nM

same assay, conditions: protein: commercial; copies: 1;1; label: 5'-32P primer; 5' overhang 4 nt (template); printed U opposite A

Binder	Kd
B12	900 ± 205 nM

same assay, conditions: protein: commercial; copies: 1;1; label: 5'-32P primer; template 5' overhang 4 nt, 3' overhang 3 nt

Binder	Kd
B13	2380 ± 840 nM

— PMC3407194, “Viral Reverse Transcriptases Show Selective High Affinity Binding to DNA-DNA Primer-Templates that Resemble the Polypurine Tract”
